Data published in patent publication US20240075114A1.

Target: PF-4 in cynomolgus monkey plasma (cynomolgus monkey)
Assay: aligned sandwich ELISA, cyno plasma

AUC Ratio vs anti-HPF4: 1
anti-HPF4 AUC mean: 2.9
Substance: monoclonal anti-HPF4 antibody (Abcam cat. no.: ab49735)
